From patent US20070020227A1
Substitutions are numbered along the chain they refer to. Values belong to the molecule of their own block, whether it stands above or below them.

Columns and labels:
Test in all cases: cell-based or functional assay
[1] = biological target: human IL-28 receptor on 293 HEK cells (transfected IL-28 receptor alpha subunit with endogenous CRF2-4) (human)
[2] = biological target: T1, zcyto20 (human IL-28A) (human) (UniProt Q8IZJ0)
T1 sequence: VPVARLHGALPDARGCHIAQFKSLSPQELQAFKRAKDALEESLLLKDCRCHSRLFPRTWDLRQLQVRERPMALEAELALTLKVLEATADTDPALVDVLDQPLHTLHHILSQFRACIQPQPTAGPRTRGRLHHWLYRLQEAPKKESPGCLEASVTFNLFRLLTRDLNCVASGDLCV

[3] = biological target: zcyto21 (SEQ ID NO:15) (human) (UniProt Q8IU54)
[4] = biological target: T2, zcyto24 (mouse IL-28, SEQ ID NO: 8) (mouse) (UniProt Q4VK74)
T2 sequence: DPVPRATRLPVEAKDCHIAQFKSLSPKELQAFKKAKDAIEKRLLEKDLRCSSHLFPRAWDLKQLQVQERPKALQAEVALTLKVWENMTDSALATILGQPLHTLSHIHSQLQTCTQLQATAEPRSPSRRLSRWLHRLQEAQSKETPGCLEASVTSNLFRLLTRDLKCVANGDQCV

UniProt Q8IU54, sequence (Q8IU54 other isoform, or with tags, fused parts or gaps): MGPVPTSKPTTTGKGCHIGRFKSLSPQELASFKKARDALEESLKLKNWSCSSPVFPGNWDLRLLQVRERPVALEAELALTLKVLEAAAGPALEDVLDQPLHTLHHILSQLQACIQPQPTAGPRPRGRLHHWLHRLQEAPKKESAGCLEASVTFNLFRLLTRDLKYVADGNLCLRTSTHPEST
human IL-28 receptor on 293 HEK cells (transfected IL-28 receptor alpha subunit with endogenous CRF2-4) (human), sequence (Q8IU57 whole entry, chain 1 of 2): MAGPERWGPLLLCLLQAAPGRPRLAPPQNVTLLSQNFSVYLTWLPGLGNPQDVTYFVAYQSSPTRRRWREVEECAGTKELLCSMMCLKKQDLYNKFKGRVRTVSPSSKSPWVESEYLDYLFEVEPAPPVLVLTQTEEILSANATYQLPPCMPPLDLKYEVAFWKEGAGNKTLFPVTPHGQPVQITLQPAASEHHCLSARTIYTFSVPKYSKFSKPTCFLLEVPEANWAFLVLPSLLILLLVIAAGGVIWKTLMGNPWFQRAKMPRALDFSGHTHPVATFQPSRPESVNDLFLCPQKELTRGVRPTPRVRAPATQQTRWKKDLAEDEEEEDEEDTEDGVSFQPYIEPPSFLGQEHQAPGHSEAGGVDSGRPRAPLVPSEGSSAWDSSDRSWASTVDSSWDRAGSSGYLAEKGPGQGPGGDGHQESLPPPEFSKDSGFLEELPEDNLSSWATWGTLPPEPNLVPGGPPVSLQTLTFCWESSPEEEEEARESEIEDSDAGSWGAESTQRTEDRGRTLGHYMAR
human IL-28 receptor on 293 HEK cells (transfected IL-28 receptor alpha subunit with endogenous CRF2-4) (human), sequence (Q08334 whole entry, chain 2 of 2, further chain): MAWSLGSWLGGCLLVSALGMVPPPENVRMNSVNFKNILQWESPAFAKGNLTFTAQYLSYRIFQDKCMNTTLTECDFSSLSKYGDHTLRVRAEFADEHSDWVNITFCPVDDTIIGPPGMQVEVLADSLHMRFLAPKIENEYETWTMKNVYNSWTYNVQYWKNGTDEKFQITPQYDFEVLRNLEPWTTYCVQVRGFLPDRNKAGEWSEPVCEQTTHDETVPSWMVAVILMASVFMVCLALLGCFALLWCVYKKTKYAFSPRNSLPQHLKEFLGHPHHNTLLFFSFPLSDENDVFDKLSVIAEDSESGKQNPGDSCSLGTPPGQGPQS

Molecule: huIL10 (from UniProt P22301 19-178) (ligand)
ISRE Signaling of Transfected 293 Cells (Fold Induction), ISRE-Luc./IL-28R, ligand 100 ng/ml (fold induction) [1]: 0.5

Molecule: human CRF2-4-Fc homodimer soluble receptor (Fc fusion)
Percent Inhibition of Ligand-induced ISRE Signaling by Soluble Receptors (10 ng/ml ligand, 10 micrograms/ml soluble receptor) [2]: 80% | Percent Inhibition of Ligand-induced ISRE Signaling by Soluble Receptors (10 ng/ml ligand, 10 micrograms/ml soluble receptor) [3]: 79% | Percent Inhibition of Ligand-induced ISRE Signaling by Soluble Receptors (10 ng/ml ligand, 10 micrograms/ml soluble receptor) [4]: 82%

Molecule: zcyto10 (ligand)
ISRE Signaling of Transfected 293 Cells (Fold Induction), ISRE-Luc./IL-28R, ligand 125 ng/ml (fold induction) [1]: 1

Further lines, results first:

Percent Inhibition of Ligand-induced ISRE Signaling by Soluble Receptors (10 ng/ml ligand, 10 micrograms/ml soluble receptor) [2]: 16% | Percent Inhibition of Ligand-induced ISRE Signaling by Soluble Receptors (10 ng/ml ligand, 10 micrograms/ml soluble receptor) [3]: 16% | Percent Inhibition of Ligand-induced ISRE Signaling by Soluble Receptors (10 ng/ml ligand, 10 micrograms/ml soluble receptor) [4]: 47%
Molecule: human zcytor19-Fc/human CRF2-4-Fc heterodimer soluble receptor (Fc fusion)

Percent Inhibition of Ligand-induced ISRE Signaling by Soluble Receptors (10 ng/ml ligand, 10 micrograms/ml soluble receptor) [2]: 92% | Percent Inhibition of Ligand-induced ISRE Signaling by Soluble Receptors (10 ng/ml ligand, 10 micrograms/ml soluble receptor) [3]: 45% | Percent Inhibition of Ligand-induced ISRE Signaling by Soluble Receptors (10 ng/ml ligand, 10 micrograms/ml soluble receptor) [4]: 90%
B1: human zcytor19-Fc homodimer soluble receptor (Fc fusion, not shown: a dimerising Fc or GST)
chain: RPRLAPPQNVTLLSQNFSVYLTWLPGLGNPQDVTYFVAYQSSPTRRRWREVEECAGTKELLCSMMCLKKQDLYNKFKGRVRTVSPSSKSPWVESEYLDYLFEVEPAPPVLVLTQTEEILSANATYQLPPCMPPLDLKYEVAFWKEGAGNKTLFPVTPHGQPVQITLQPAASEHHCLSARTIYTFSVPKYSKFSKPTCFLLEVPEANWA

Percent Inhibition of Ligand-induced ISRE Signaling by Soluble Receptors (10 ng/ml ligand, 10 micrograms/ml soluble receptor) [2]: 91% | Percent Inhibition of Ligand-induced ISRE Signaling by Soluble Receptors (10 ng/ml ligand, 10 micrograms/ml soluble receptor) [3]: 103% | Percent Inhibition of Ligand-induced ISRE Signaling by Soluble Receptors (10 ng/ml ligand, 10 micrograms/ml soluble receptor) [4]: 89%
B2: murine zcytor19-Ig homodimer soluble receptor (Fc fusion, part only; not given: Ig portion, UniProt Q8CGK5 21-227, looked up, part only)
chain, part: RPRLAPPRNVTLFSQNFTVYLTWLPGLGSPPNVTYFVTYQSYIKTGWRPVEHCAGIKALVCPLMCLKKLNLYSKFKGRVQAASAHGRSPRVESRYLEYLFDVELAPPTLVLTQMEKILRVNATYQLPPCMPSLELKYQVEFWKEGLGSKTLFPDTPYGQPVQIPLQQGASRRHCLSARTVYTLIDIKYSQFSEPSCIFLEAPGDKRA

ISRE Signaling of Transfected 293 Cells (Fold Induction), ISRE-Luc./IL-28R, ligand 125 ng/ml (fold induction) [1]: 104
B3: IL-28B (SEQ ID NO: 6) (ligand)
chain: T1 sequence with H7R, R49K, H51R, M71V, V95G, F112L, Y135H
